In patent US20210155701A1 (Chugai, published 2021):
Changes are numbered by the printed parent chain. Each block holds one binder with its values, some of them ahead of it.

What was measured:
[1] = target: T1, human CD3ed-Fc (biotin-labeled human CD3 epsilon and human CD3 delta linked to a human antibody constant … (human, biotin-labeled (BirA co-expression); site not stated); assay: BLI (Octet RED) as in Example 3
T1 construct: also called CD3 epsilon delta heterodimer fused with the antibody constant region
T1 chain 1: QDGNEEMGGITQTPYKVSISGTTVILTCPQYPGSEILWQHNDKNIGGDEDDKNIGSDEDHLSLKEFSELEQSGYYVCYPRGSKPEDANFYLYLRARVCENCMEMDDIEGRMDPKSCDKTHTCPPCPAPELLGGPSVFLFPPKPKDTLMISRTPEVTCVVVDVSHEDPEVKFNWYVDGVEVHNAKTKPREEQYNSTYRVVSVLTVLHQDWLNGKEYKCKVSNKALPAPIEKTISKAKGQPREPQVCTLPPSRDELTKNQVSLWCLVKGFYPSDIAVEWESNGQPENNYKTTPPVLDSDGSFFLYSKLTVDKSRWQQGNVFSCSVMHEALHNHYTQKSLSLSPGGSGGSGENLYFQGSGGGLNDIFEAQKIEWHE
T1 chain 2: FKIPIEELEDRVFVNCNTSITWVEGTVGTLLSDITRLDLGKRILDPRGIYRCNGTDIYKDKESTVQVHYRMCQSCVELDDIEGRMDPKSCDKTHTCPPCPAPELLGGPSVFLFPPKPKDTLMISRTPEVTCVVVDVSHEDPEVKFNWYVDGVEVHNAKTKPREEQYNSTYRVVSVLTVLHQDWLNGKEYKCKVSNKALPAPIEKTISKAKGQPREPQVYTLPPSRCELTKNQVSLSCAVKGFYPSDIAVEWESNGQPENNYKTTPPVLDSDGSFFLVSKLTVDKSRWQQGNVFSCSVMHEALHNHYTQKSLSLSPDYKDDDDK

biotinylated plexin A1 = target: T2, biotinylated plexin A1 (human, UniProt Q9UIW2 27-1253, biotin on the AviTag sequence (SEQ ID NO: 36)); assay: BLI (Octet) as in Example 3
T2 construct: also called biotin-labeled human plexin A1; human plexin A1
T2 sequence (Q9UIW2 other isoform, or with tags, fused parts or gaps limits assumed): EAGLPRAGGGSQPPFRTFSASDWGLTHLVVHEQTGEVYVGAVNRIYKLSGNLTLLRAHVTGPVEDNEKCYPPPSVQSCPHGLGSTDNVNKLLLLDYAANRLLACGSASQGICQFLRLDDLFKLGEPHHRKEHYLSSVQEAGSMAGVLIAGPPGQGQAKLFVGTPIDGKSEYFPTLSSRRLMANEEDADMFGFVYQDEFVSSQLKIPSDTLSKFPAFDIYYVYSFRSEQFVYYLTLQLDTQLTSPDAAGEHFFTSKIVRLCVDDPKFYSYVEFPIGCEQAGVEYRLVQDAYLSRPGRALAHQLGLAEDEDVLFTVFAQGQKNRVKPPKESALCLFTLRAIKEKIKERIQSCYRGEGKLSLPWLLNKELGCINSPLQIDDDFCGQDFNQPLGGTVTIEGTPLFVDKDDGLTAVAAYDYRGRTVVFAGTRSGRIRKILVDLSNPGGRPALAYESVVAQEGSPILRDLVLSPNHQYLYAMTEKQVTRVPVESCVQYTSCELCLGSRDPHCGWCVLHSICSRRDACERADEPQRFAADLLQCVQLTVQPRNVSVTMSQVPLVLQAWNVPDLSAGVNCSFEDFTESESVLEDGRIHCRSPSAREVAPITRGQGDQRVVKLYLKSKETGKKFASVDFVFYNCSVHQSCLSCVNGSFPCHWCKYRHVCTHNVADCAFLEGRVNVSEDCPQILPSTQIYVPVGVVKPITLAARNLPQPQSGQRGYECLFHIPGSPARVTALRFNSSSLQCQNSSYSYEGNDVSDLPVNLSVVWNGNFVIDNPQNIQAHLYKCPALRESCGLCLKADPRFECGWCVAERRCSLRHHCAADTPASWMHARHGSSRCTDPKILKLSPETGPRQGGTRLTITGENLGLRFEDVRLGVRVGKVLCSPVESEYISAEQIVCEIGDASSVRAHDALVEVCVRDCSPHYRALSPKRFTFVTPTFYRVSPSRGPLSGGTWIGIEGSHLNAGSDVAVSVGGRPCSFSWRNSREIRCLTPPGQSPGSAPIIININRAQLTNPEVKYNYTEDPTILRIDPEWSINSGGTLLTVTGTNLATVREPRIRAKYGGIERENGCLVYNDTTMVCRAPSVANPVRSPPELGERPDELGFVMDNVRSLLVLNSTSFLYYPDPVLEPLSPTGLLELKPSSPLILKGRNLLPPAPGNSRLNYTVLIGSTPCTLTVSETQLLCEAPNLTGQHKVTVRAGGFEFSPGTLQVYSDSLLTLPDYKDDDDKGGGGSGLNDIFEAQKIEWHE

B2: PX02-R4_017-G1mISHI01/VK1-39-k0MT (before protease treatment) (antibody, human IgG1, kappa, V domains shown)
VH: QVQLVESGGGLVQPGGSLRLSCTASGISFSISTMGWYRQAPGKQRELVATITSGGEAYYANSMKDRFTISRDNAENTVYLQMNRLKPEDSAVYYCNTKFPWSTDWNARGQGTQVTVSG
VL: DIQMTQSPSSLSASVGDRVTITCRASQSISSYLNWYQQKPGKAPKLLIYAASSLQSGVPSRFSGSGSGTDFTLTISSLQPEDFATYYCLQFDSYPLTFGGGTKVEIKR
notes: Uncleaved
binding result (biotinylated plexin A1): no binding

B4: PX03-R2_006-G1mISHI01/VK1-39-k0MT (before protease treatment) (antibody, human IgG1, kappa, V domains shown)
VH: B2 VH with V2L, T52A, M63V, D65G
VL: B2 VL
notes: Uncleaved
binding result (biotinylated plexin A1): no binding

B5: PX03-R4_009-G1mISHI01/VK1-39-k0MT (before protease treatment) (antibody, human IgG1, kappa, V domains shown)
VH: B2 VH with V2L, T52A, M63V, D65G, D72E, N73Y, Y79F
VL: B2 VL
notes: Uncleaved
binding result (biotinylated plexin A1): no binding

Now from value to binder:

binding result [1]: no binding
B1: bC3edL1R1N161H01-G1mISHI01/VK1-39-k0MT (before protease treatment) (antibody, human IgG1, kappa, V domains shown)
VH: QVQLVESGGGLVQPGGSLRLSCAASGFPFDNYVMSWVRQAPGKGLEWISAISWNGGSTYYAESMKGRFTISRDNAKSTLYLQMNSLKSEDTAVYYCAKEPRVYYSGSPDYWGQGTQVTVSG
VL: B2 VL
notes: Uncleaved

binding result [1]: no binding
B3: bC3edL1R1N164H01-G1mISHI01/VK1-39-k0MT (before protease treatment) (antibody, human IgG1, kappa, V domains shown)
VH: QVQLVESGGGLVQPGGSLRLSCAASGFTFDVYGMSWVRHSPGKGLEWVSTINWNGGSTYYAESMKGRFTISRDNAKNTVYLQMNSLKPEDTAVYYCAKFAPWDGDMEWGQGTQVTVSG
VL: B2 VL
notes: Uncleaved
